From patent publication WO2022034912A1 (dated 2022) come the findings set out here.

For test [1], the target named is T1, hTRPV2 extracellular domain-biotin (572-609) (human, biotin added with the lysine residue at the C-terminus).
T1 construct: Synthetic polypeptide, analyte in the SPR measurement; also called hTRPV2 extracellular domain (572-609)
T1 peptide: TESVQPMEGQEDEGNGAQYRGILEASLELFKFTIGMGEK
The test is described as follows: SPR (Biacore T200), antibody captured on anti-mouse IgG(Fc), peptide 10-1000 nM as analyte, 1:1 model. (In general: SPR reads the build-up and loss of mass on a sensor chip optically.)

Test [2] has as its target T2, biotinylated hTRPV2 (hTRPV2 full-length expression vector with Myc-Biotinylation-His tag, expressed in HEK293 … (human, UniProt Q9Y5S1 1-764, biotinylated on the tag (Myc-Biotin-His tag))).
T2 construct: also called biotinylated hTRPV2-expressing HEK293 cells; not shown: Myc-Biotinylation-His tag
T2 sequence: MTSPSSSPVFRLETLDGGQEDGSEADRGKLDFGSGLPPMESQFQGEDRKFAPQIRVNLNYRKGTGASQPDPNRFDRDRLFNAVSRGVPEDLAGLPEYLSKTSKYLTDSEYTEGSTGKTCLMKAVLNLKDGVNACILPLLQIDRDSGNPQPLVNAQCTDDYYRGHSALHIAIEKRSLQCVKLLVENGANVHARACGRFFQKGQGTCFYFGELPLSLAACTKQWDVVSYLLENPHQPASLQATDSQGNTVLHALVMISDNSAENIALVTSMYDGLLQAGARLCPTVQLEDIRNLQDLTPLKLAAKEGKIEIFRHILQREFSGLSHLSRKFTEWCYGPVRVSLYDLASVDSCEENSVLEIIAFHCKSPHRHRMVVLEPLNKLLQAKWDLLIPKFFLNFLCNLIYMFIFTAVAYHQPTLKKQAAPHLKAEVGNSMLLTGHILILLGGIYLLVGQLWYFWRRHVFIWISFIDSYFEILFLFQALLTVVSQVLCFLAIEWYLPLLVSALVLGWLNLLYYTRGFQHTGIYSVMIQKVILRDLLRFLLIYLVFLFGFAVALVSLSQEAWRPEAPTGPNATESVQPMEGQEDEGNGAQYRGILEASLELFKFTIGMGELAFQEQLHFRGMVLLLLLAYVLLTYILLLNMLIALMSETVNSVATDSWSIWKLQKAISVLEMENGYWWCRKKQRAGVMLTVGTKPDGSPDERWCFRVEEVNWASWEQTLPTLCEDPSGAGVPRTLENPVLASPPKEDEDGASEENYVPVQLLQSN
As to the kind of experiment: flow cytometry on hTRPV2-expressing 293 cells, purified IgG.

Test [3] concerns the target T3, human TRPV2 (transient receptor potential cation channel, subfamily V, member 2) (human, UniProt Q9Y5S1 1-764).
T3 sequence: T2 sequence
As to the kind of experiment: cell-based or functional assay.

The target of a further test is T4, mouse TRPV2 (mouse, UniProt Q9WTR1 1-756).
T4 construct: whole, on cells; In the Western blot solubilised from the cells; also called mTRPV2; mTRPV2-expressing HEK293 cells
T4 sequence (looked up): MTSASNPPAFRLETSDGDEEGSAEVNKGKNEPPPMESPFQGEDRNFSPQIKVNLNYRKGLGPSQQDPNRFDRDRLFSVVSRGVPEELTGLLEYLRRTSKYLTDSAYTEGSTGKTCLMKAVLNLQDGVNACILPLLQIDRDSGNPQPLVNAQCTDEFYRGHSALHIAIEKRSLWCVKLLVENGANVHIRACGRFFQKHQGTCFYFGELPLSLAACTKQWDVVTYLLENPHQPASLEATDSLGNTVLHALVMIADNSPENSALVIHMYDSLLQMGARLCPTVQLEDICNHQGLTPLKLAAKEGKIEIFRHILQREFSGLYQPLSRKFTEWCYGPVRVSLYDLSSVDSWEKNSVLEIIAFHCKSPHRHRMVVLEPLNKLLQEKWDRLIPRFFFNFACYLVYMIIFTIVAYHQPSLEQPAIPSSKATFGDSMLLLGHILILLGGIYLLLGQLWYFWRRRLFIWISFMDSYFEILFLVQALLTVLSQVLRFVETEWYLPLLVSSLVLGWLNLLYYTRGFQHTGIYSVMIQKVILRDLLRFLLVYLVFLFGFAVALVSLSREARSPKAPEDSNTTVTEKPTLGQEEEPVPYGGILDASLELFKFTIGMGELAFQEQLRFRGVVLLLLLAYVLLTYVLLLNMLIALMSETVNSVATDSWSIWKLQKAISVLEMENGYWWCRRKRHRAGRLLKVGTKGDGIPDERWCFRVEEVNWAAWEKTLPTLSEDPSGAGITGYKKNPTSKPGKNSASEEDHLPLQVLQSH
The test is described as follows: Western blot of solubilised mTRPV2-expressing HEK293 cells.

Substitutions are numbered along the chain they refer to.

B1: anti-human TRPV2 IgG antibody mAb001 (01a033) (antibody, V domains shown)
VH: QVQLKESGPDLVQPSQTLSLTCTVSGFSLTTYGVHWVRQPPGKGLEWVGTMGWDGKKYYNSALKSRLSISRDTSKNQVFLKLSSLQTEDTAMYYCTRDGGYTWFAYWGQGTLVTVSA
VL: NIVMTQSPSSLAVSAGEKVTMSCKSSQSLLNSRTRKNYLAWYQQKPGQSPKLLIYWASTRESGVPDRFTGSGSGTDFTLTISSVQAEDLAVYYCKQSYNLFTFGGGTKLEIK
notes: Mouse IgG: VH joined to mouse CH1,2,3 and VL to CK, made in CHO-K1 cells, purified on Protein A; also called anti-hTRPV2 antibody (mAb001)
On to B1, for which, in test [1], the Kd stood at 188 nM.

B2: humanized mAb002 antibody (VH14+VL1) (antibody, V domains shown)
VH: QVQLQESGPGLVKPSQSLSLTCTVSGFSLTSFGIHWIRQPPGKGLEWIGVIWSGGITHYNSALMSRVSISKDTSKNQVFLKLSSVTAADTAMYYCAKLYSHPHAMDYWGQGTLVTVSS
VL: DIVMTQSPLSLPVTPGEPASISCRSSKSLLHSNGITYLYWYLQKPGQSPQLLIYRMSNLASGVPDRFSGSGSGTDFTLKISRVEAEDVGVYYCMQHLEYPLTFGGGTKLEIK
notes: Full-length human IgG made in Expi293F cells
For B2, the binding result in test [2] was “binds”.

B3: humanized mAb002 antibody (VH16+VL1) (antibody, V domains shown)
VH: B2 VH with K13A, S17T
VL: B2 VL
notes: as for B2
In the case of B3, the binding result in test [2] is listed as “binds”.

B4: humanized mAb002 antibody (VH15+VL1) (antibody, V domains shown)
VH: B2 VH with F79S
VL: B2 VL
notes: as for B2
On to B4, for which, in test [2], the binding result was “binds”.

B5: humanized mAb002 antibody (VH13+VL1) (antibody, V domains shown)
VH: B2 VH with Q5K, E6Q, K13A, L20I, V67L
VL: B2 VL
notes: as for B2
As to B5, the binding result in test [2] is “binds”.

B6: humanized mAb002 antibody (VH12+VL1) (antibody, V domains shown)
VH: B2 VH with T73N, L82M, S83N
VL: B2 VL
notes: as for B2
Take B6: the binding result in test [2] is given as “binds”.

B7: anti-human TRPV2 IgG antibody mAb002 (02a001) (antibody, V domains shown)
VH: QVQLKQSGPVLVAPSQSLSITCTVSGFSLTSFGIHWVRQPPGKGLEWLGVIWSGGITHYNSALMSRLSISKDNSKSQVFLKMNSLQTDDTAMYYCAKLYSHPHAMDYWGQGTSVTVSS
VL: DIVMTQAAPSVPVTPGESVSISCRSSKSLLHSNGITYLYWFLQRPGQSPQLLIYRMSNLASGVPDRFSASGSGTAFTLRISRVEAEDVGVYYCMQHLEYPLTFGAGTKLELK
notes: Mouse IgG: VH joined to mouse CH1,2,3 and VL to CK, made in CHO-K1 cells, purified on Protein A; also called anti-hTRPV2 antibody (mAb002)
For B7, the “IC50 of the inhibition of Ca 2+ influx into hTRPV2-expressing HEK293 cells (Cal520 fluorescence, cannabidiol and probenecid stimulation)” value in test [3] came to 8.9 nM. In addition, the binding result in the test with mouse TRPV2 is “no binding (tested: 500-fold dilution)”. In test [1], the Kd amounted to 19.2 nM.

A word on the Kd: it is the concentration at which binding is half-saturated.
